# Experimental data published in patent US20030166536A1.
# Experiments:
# Assay in all cases: cell-based or functional assay
# [1] = biological target: B-domainless human factor VIII (human) (UniProt P00451)
# [2] = biological target: HP10, hybrid human/porcine B-domainless factor VIII, porcine substitution 373-403 (human; porcine) (UniProt P00451)
# [3] = biological target: HP11, hybrid human/porcine B-domainless factor VIII, porcine substitution 404-508 (human; porcine) (UniProt P00451)
# [4] = biological target: HP12, hybrid human/porcine B-domainless factor VIII, porcine substitution 489-508 (human; porcine) (UniProt P00451)
# [5] = biological target: HP13, hybrid human/porcine B-domainless factor VIII, porcine substitution 484-488 (human; porcine) (UniProt P00451)
# [6] = biological target: HP4, hybrid human/porcine B-domainless factor VIII, porcine substitution 373-540 (human; porcine) (UniProt P00451)
# [7] = biological target: HP5, hybrid human/porcine B-domainless factor VIII, porcine substitution 373-508 (human; porcine) (UniProt P00451)
# [8] = biological target: HP6, hybrid human/porcine B-domainless factor VIII, porcine substitution 373-444 (human; porcine) (UniProt P00451)
# [9] = biological target: HP7, hybrid human/porcine B-domainless factor VIII, porcine substitution 445-508 (human; porcine) (UniProt P00451)
# [10] = biological target: HP8, hybrid human/porcine B-domainless factor VIII, porcine substitution 373-483 (human; porcine) (UniProt P00451)
# [11] = biological target: HP9, hybrid human/porcine B-domainless factor VIII, porcine substitution 484-508 (human; porcine) (UniProt P00451)
# [12] = biological target: human B-domainless factor VIII F501 → A (human) (UniProt P00451)
# [13] = biological target: human B-domainless factor VIII I508 → A (human) (UniProt P00451)
# [14] = biological target: human B-domainless factor VIII P485 → A (human) (UniProt P00451)
# [15] = biological target: human B-domainless factor VIII P492 → A (human) (UniProt P00451)
# [16] = biological target: human B-domainless factor VIII R484 → A (human) (UniProt P00451)
# [17] = biological target: human B-domainless factor VIII R489 → A (human) (UniProt P00451)
# [18] = biological target: human B-domainless factor VIII R490 → A (human) (UniProt P00451)
# [19] = biological target: human B-domainless factor VIII S488 → A (human) (UniProt P00451)
# [20] = biological target: human B-domainless factor VIII V495 → A (human) (UniProt P00451)
# [21] = biological target: human B-domainless factor VIII Y487 → A (human) (UniProt P00451)
# [22] = biological target: human A1/A3-C1-C2 dimer of factor VIIIa (human) (UniProt P00451)
# [23] = biological target: porcine A1/A3-C1-C2 dimer of factor VIIIa (porcine) (UniProt P12263)
# Chain of human B-domainless factor VIII V495 → A (human) (P00451 other isoform, or with tags, fused parts or gaps): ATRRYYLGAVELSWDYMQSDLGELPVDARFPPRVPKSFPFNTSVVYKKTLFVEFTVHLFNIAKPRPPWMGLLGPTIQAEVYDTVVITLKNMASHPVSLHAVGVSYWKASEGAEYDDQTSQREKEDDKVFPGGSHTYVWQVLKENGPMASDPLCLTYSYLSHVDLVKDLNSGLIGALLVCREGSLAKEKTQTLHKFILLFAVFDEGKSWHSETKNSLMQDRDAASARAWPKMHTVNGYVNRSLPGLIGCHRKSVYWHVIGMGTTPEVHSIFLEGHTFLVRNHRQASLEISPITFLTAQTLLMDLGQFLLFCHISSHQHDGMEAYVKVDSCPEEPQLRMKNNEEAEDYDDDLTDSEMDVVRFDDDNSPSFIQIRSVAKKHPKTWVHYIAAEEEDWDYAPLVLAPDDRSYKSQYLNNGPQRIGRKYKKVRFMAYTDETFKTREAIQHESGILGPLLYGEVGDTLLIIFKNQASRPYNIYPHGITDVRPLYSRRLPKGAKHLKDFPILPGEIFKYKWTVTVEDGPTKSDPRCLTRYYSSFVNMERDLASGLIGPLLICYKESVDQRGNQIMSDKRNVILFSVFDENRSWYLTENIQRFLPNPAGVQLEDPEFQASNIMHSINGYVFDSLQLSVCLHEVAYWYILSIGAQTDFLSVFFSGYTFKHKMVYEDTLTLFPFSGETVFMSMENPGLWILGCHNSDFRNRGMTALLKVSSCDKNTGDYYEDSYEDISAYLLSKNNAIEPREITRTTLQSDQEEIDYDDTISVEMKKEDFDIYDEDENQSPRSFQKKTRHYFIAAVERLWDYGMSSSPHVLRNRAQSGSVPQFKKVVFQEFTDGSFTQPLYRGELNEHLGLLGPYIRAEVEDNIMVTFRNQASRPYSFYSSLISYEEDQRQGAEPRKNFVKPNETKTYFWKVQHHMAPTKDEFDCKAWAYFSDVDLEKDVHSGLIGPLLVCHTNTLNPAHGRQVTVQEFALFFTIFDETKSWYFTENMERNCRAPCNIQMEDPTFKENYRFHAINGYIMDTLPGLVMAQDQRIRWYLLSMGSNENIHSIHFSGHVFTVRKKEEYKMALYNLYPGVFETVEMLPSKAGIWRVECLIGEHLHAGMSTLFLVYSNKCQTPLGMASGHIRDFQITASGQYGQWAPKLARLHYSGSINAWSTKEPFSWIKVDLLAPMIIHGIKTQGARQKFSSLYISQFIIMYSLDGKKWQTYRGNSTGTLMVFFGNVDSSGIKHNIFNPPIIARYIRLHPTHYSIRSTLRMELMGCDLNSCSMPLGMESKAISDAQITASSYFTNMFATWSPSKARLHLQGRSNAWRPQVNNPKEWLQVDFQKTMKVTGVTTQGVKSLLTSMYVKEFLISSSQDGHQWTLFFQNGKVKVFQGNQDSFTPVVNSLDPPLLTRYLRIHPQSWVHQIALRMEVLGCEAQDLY
# Chain of human B-domainless factor VIII R484 → A (human) (P00451 other isoform, or with tags, fused parts or gaps): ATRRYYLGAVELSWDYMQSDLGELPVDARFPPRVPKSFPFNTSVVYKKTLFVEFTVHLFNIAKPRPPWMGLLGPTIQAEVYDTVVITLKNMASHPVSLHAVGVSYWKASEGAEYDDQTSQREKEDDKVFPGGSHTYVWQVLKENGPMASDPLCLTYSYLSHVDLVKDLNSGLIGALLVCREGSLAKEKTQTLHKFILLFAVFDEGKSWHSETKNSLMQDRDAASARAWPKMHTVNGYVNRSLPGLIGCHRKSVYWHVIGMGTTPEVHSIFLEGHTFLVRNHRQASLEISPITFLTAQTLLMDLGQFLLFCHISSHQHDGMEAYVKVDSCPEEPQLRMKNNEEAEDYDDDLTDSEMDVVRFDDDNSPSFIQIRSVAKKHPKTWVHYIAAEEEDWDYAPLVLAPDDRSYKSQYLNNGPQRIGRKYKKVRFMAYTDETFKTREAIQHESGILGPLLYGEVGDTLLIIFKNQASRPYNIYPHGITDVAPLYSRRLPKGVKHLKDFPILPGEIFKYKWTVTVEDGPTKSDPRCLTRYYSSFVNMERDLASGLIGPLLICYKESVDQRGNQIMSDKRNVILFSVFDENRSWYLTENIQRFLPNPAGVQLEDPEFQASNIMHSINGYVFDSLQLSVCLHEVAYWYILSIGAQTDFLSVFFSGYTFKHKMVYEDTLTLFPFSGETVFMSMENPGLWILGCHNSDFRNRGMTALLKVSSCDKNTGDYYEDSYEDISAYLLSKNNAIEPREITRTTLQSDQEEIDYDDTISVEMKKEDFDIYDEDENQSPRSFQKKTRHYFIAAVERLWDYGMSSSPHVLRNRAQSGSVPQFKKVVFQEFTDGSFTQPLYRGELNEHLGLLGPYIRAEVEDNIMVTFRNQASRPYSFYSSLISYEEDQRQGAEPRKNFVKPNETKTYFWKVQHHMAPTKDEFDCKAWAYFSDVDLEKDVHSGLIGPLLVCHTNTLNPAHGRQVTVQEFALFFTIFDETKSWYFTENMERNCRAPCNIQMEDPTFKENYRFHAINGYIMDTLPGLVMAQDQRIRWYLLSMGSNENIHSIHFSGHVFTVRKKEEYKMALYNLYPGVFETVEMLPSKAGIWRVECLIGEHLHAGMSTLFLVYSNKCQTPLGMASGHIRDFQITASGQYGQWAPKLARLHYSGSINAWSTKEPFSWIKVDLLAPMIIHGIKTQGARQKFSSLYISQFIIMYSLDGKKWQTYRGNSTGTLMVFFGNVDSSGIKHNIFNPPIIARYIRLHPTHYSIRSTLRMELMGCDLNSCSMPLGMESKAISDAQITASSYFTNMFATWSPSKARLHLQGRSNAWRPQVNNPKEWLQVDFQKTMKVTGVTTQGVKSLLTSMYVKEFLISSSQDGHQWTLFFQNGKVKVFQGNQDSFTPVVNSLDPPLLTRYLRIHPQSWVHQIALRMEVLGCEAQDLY
# Chain of human B-domainless factor VIII R490 → A (human) (P00451 other isoform, or with tags, fused parts or gaps): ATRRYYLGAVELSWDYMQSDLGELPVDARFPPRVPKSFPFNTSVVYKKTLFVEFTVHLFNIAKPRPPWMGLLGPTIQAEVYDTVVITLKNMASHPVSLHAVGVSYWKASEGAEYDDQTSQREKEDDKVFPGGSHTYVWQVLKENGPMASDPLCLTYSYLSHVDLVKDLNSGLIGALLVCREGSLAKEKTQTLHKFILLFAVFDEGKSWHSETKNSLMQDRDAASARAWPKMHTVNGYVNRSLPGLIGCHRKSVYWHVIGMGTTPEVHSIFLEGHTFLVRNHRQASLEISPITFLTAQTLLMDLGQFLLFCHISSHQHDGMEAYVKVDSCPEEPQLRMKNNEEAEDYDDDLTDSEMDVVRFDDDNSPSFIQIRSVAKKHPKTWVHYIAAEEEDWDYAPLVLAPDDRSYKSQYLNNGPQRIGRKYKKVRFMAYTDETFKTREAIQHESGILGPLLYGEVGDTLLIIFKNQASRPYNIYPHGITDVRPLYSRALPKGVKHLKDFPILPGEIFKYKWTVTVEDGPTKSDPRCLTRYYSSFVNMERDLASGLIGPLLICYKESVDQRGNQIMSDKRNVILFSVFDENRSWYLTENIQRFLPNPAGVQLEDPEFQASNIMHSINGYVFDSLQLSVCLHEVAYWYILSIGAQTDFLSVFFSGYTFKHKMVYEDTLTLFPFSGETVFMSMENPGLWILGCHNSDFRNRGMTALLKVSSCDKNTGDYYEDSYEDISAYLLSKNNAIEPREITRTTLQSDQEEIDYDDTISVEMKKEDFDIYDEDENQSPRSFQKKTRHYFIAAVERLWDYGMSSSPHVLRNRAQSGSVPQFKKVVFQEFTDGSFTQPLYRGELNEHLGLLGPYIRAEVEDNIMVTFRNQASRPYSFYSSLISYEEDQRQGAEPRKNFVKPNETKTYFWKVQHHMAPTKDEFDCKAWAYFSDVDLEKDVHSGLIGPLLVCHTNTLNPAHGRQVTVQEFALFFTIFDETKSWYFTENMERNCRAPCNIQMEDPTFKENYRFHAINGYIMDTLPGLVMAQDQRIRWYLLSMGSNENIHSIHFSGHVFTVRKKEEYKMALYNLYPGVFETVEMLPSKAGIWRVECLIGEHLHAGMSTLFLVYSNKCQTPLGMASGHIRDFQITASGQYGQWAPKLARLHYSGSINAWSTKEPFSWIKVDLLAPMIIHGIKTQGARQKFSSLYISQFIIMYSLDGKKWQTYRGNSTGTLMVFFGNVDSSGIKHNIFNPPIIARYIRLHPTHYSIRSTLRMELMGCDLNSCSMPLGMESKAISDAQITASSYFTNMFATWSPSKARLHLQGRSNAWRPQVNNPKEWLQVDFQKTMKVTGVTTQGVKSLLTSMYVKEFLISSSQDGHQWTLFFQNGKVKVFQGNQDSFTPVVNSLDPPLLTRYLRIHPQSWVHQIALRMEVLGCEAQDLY
substance,measurement,setting,value
"mAb413, murine monoclonal inhibitory antibody specific for the A2 domain of factor VIII","Inhibition mAb413 (BU/mg IgG), Bethesda assay",[1],1470 BU/mg IgG
same,"MAb413 titer (BU/mg), Bethesda assay",[1],9400 BU/mg
same,"Inhibition mAb413 (BU/mg IgG), Bethesda assay",[2],1170 BU/mg IgG
same,"Inhibition mAb413 (BU/mg IgG), Bethesda assay",[3],< 0.7 BU/mg IgG
same,"Inhibition mAb413 (BU/mg IgG), Bethesda assay",[4],< 0.7 BU/mg IgG
same,"Inhibition mAb413 (BU/mg IgG), Bethesda assay",[5],< 0.7 BU/mg IgG
same,"Inhibition mAb413 (BU/mg IgG), Bethesda assay",[6],< 0.7 BU/mg IgG
same,"Inhibition mAb413 (BU/mg IgG), Bethesda assay",[7],< 0.7 BU/mg IgG
same,"Inhibition mAb413 (BU/mg IgG), Bethesda assay",[8],1450 BU/mg IgG
same,"Inhibition mAb413 (BU/mg IgG), Bethesda assay",[9],< 0.7 BU/mg IgG
same,"Inhibition mAb413 (BU/mg IgG), Bethesda assay",[10],1250 BU/mg IgG
same,"Inhibition mAb413 (BU/mg IgG), Bethesda assay",[11],< 0.7 BU/mg IgG
same,% Reactivity relative to wild-type,[12],126%
same,"MAb413 titer (BU/mg), Bethesda assay",[12],11900 BU/mg
same,% Reactivity relative to wild-type,[13],60%
same,"MAb413 titer (BU/mg), Bethesda assay",[13],5620 BU/mg
same,% Reactivity relative to wild-type,[14],42%
same,"MAb413 titer (BU/mg), Bethesda assay",[14],4000 BU/mg
same,% Reactivity relative to wild-type,[15],6.7%
same,"MAb413 titer (BU/mg), Bethesda assay",[15],630 BU/mg
same,% Reactivity relative to wild-type,[16],1.7%
same,"MAb413 titer (BU/mg), Bethesda assay",[16],160 BU/mg
same,% Reactivity relative to wild-type,[17],0.015%
same,"MAb413 titer (BU/mg), Bethesda assay",[17],1.6 BU/mg
same,% Reactivity relative to wild-type,[18],< 0.5%
same,reactivity to inhibitor relative to human factor VIII,[18],0.2%
same,% Reactivity relative to wild-type,[19],37%
same,"MAb413 titer (BU/mg), Bethesda assay",[19],3500 BU/mg
same,% Reactivity relative to wild-type,[20],113%
same,"MAb413 titer (BU/mg), Bethesda assay",[20],10700 BU/mg
same,% Reactivity relative to wild-type,[21],0.53%
same,"MAb413 titer (BU/mg), Bethesda assay",[21],50 BU/mg
"porcine factor VIIIa A2 domain, isolated from porcine blood (from UniProt P12263 392-759)","Specific Activity (U/mg) of reconstituted hybrid fVIIIa, two-stage clotting assay at 1 hour",[22],140000 U/mg
same,"Specific Activity (U/mg) of reconstituted fVIIIa, two-stage clotting assay at 1 hour",[23],70000 U/mg
